This note sets out measurements from patent publication US20040197818A1 (UNIVERSITY OF UTAH RESEARCH FOUNDATION, published 2004).

Test [1] deals with T1, HERG (human, UniProt Q12809 1-1159). The experiment in a line: cell-based or functional assay.
Test [2] deals with T1, HERG. Nature of the test: cell-based or functional assay. This is another data set of the same source.

T1 sequence (Q12809 whole entry): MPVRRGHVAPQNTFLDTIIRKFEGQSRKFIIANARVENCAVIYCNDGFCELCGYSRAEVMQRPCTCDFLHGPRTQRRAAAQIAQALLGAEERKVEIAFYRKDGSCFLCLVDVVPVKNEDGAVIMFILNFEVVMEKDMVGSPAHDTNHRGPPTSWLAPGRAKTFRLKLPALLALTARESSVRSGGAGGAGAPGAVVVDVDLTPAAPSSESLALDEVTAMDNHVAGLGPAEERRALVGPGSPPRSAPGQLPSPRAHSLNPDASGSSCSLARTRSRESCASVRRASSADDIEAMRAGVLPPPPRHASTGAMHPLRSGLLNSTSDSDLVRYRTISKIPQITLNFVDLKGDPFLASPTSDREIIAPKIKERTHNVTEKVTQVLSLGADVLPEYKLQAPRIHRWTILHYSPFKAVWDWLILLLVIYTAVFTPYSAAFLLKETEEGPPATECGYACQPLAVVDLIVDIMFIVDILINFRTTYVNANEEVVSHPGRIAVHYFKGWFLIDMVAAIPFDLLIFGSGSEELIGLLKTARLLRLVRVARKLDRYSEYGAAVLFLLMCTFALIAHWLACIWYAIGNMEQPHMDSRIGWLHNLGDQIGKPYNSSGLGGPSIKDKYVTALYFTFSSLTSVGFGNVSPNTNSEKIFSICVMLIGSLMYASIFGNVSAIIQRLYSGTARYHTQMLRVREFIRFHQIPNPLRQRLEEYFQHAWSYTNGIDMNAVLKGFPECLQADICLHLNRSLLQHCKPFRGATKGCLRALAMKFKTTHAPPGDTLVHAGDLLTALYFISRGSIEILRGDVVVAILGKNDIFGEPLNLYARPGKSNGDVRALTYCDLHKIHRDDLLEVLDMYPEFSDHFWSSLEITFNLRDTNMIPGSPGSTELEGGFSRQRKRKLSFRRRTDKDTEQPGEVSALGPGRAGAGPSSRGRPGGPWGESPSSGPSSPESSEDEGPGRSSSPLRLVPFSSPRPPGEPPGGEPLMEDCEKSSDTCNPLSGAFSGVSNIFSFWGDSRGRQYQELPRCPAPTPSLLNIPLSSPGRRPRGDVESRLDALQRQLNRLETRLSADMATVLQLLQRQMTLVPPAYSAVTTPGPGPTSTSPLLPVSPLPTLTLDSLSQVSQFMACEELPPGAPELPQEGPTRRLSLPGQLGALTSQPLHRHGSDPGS

B1: rMiRP1 (other)
chain: MTTLANLTQTLEDAFKKVFITYMDSWRRNTTAEQQALQARVDAENFYYVILYLMVMIGMFAFIVVAILVSTVKSKRREHSQDPYHQYIVEDWQQKYRSQILHLEDSKATIHENLGATGFTVSP
modifications: 35S-methionine label in the in vitro binding assay
For B1, in test [1], the “deactivation rate, oocytes” value came out at 7 fold and the “deactivation rate, plasma-like ionic conditions, whole-cell” value is ~2 fold.

B2: wild type human MiRP1 (other)
chain: MSTLSNFTQTLEDVFRRIFITYMDNWRQNTTAEQEALQAKVDAENFYYVILYLMVMIGMFSFIIVAILVSTVKSKRREHSNDPYHQYIVEDWQEKYKSQILNLEESKATIHENIGAAGFKMSP
On to B2, for which the “deactivation rate at -120 mV, CHO cells” value in test [1] was ~3 fold. Moreover, in test [2], the “activation V1/2” value was -21 mV, the “deactivation fast time constant” value was 80, the “deactivation ratio If/(Is + If)” value was determined as 0.82 and the “deactivation slow time constant” value was found to be 483.

B3: T8A-hMiRP1 (other)
chain: MSTLSNFAQTLEDVFRRIFITYMDNWRQNTTAEQEALQAKVDAENFYYVILYLMVMIGMFSFIIVAILVSTVKSKRREHSNDPYHQYIVEDWQEKYKSQILNLEESKATIHENIGAAGFKMSP
On to B3, for which, in test [2], the “activation V1/2” value was -29 mV, the “deactivation fast time constant” value was 100, the “deactivation ratio If/(Is + If)” value was 0.83 and the “deactivation slow time constant” value was found to be 590.

B4: Q9E-hMiRP1 (other)
chain: MSTLSNFTETLEDVFRRIFITYMDNWRQNTTAEQEALQAKVDAENFYYVILYLMVMIGMFSFIIVAILVSTVKSKRREHSNDPYHQYIVEDWQEKYKSQILNLEESKATIHENIGAAGFKMSP
In the case of B4, in test [2], the “activation V1/2” value was -12 mV, the “deactivation fast time constant” value is 100, the “deactivation ratio If/(Is + If)” value was found to be 0.8 and the “deactivation slow time constant” value was 750.

B5: M54T-hMiRP1 (other)
chain: MSTLSNFTQTLEDVFRRIFITYMDNWRQNTTAEQEALQAKVDAENFYYVILYLTVMIGMFSFIIVAILVSTVKSKRREHSNDPYHQYIVEDWQEKYKSQILNLEESKATIHENIGAAGFKMSP
On to B5, for which, in test [1], the “deactivation rate against channels with wild type hMiRP1” value was ~3 fold. In test [2], the “activation V1/2” value was -21 mV, the “deactivation fast time constant” value turned out to be 37, the “deactivation ratio If/(Is + If)” value was 0.81 and the “deactivation slow time constant” value turned out to be 266.
